Source: patent US10287317B2, “Proprotein convertase subtilisin kexin type 9 (PCSK9) allosteric binding ligands to modulate serum low density lipoprotein (LDL) levels” (SRX Cardio, LLC, priority 2013, dated 2019)
Where no end group is shown, it is not given here.

Legend:
PCSK9-D374Y protein = PCSK9-D374Y protein (Homo sapiens, UniProt Q8NBP7, D374Y); experiment: Cellular diI-LDL uptake in HuH7 cells with PCSK9-D374Y; assay type: cell-based
Protocol: HuH7 cells were incubated in a 96-well plate for a total of 20 h in the absence (Cnt) or presence of 0.5 μg/ml PCSK9-D374Y protein alone (DY) or mixed with 100 uM of various SRX peptides. After 16 h, dil-LDL (5 ug/ml) was added to the incubation mixtures. After 4 h, fluorescence was measured (Ex: 520 nm/Em: 575 nm; cutoff: 550 nm). Dil-LDL uptake is calculated as RFU corrected for the number of cells.
HuH7 cells were incubated in a 96-well plate for a total of 20 h in the absence (Cnt) or presence of 0.5 μg/ml PCSK9 GOF-D374Y protein alone (DY) or mixed with increasing concentrations of various SRX peptides. After 16 h, dil-LDL (5 ug/ml) was added to the incubation mixtures. After 4 h, fluorescence was measured (Ex: 520 nm/Em: 575 nm; cutoff: 550 nm). Dil-LDL uptake is calculated as RFU corrected for the number of cells.
LDL internalization was measured by uptake of a fluorescently tagged LDL molecule (diI-LDL) in the absence of exogenous PCSK9 (Cnt), in the presence of exogenous PCSK9 (normal PCSK9=WT, D374Y mutant PCSK9=DY), or in the presence of PCSK9 and a tested peptide (indicated as SRX##, or SRX if a single peptide results is shown in a graph).
Cells, such as HepG2, HuH7, FL83B or a cell line transfected with a short-hairpin PCSK9 knockdown sequence such as HepG2/shPCSK9, HuH7/shPCSK9, FL83B/shPCSK9, were seeded at 2×10^4 cells/well in a 96-well plate and cultured at 37 degC in RPMI+10% FBS. After approximately 24 hours, the cell media was aspirated off and replaced with RPMI+3-5 mg/mL LPDS (Lipoprotein Deficient Serum, Millipore) media for further experimentation. Benjannet et al., “Effects of the prosegment and pH on the activity of PCSK9: evidence for additional processing events” J Biol Chem. 285(52): 40965-40978 (2010).
Peptide activity was assessed by culturing cells with: i) no SRX peptide/PCSK9 protein complex (control, Cnt); ii) PCSK9 protein; and iii) SRX peptide/PCSK9 complex. Various permutations of these experimental conditions were also used, including: i) the addition of wild type PCSK9 (WT); ii) a mutant PCSK9 (e.g., D374Y mutant PCSK9, DY); iii) various SRX peptides and/or PCSK9 at the same concentration and/or combinations; iv) various SRX peptides and/or PCSK9 at different concentrations and/or combinations; v) the use of different cells, as mentioned above, with or without a transfected short-hairpin sequence; vi) a pre-incubation of the PCSK9 and SRX peptide (e.g., 1, hour, 2 hours, 3 hours, 4 hours etc.); vii) various temperatures including, but not limited to, body temperature (e.g., 37° C.), supraphysiologic temperature (e.g., 39° C.); and viii) with/without agitation (e.g., shaker or gentle periodic vortexing).
Cells were cultured using one of the combinations of conditions described in the preceding paragraph for 16 hours. After 16 hours, a quantity of diI-LDL (Low density lipoprotein coupled with 1,1′-dioctadecyl-3,3,3′,3′-tetramethylindocarbocyanine perchlorate) needed to bring the media concentration to 5 ug/mL of diI-LDL was added to the culture well and cells continued to be cultured under these new conditions for 4 additional hours. At the end of the 4-hour incubation period (20 total hours of cell culture), the cellular uptake was halted with the addition of 4% formaldehyde in 10 uM Hoechst 33342 in a solvent such as deionized autoclaved water or PBS, and specimens were incubated at 20° C. for 20 minutes. Cell specimens were rinsed twice with PBS and then fluorescence measured with excitation at 360 nm and emission detected at 460 nm to measure DNA content. Cell specimens were then be incubated with a 0.1% SDS in a 0.1 N NaOH solution while being shaken for 10 minutes. Fluorescence of the diI-LDL in the specimens were quantified using excitation at 530 nm and resulting emission at 580 nm.
Fluorescence measurements of diI-LDLR were normalized to estimated cell numbers, determined from the Hoechst fluorescence. […]

normal PCSK9 (WT) = normal PCSK9 (WT) (Homo sapiens, UniProt Q8NBP7); experiment: Cellular diI-LDL uptake in HepG2 cells with WT PCSK9; assay type: cell-based; settings: HepG2, WT 1.2 ug/ml, pre-incubated 3 hrs at 37 C, dose dependent manner (FIG. 6)
Protocol: After 16 h, dil-LDL (5 ug/ml) was added to the incubation mixtures. After 4 h, fluorescence was measured (Ex: 520 nm/Em: 575 nm; cutoff: 550 nm). Dil-LDL uptake is calculated as RFU corrected for the number of cells. The PCSK9 and −/+SRX55 [SEQ ID NO: 2] mixtures were pre-incubated for 3 hrs at 37 C prior to addition to the cells.
LDL internalization was measured by uptake of a fluorescently tagged LDL molecule (diI-LDL) in the absence of exogenous PCSK9 (Cnt), in the presence of exogenous PCSK9 (normal PCSK9=WT, D374Y mutant PCSK9=DY), or in the presence of PCSK9 and a tested peptide (indicated as SRX##, or SRX if a single peptide results is shown in a graph). […]
Peptide activity was assessed by culturing cells with: i) no SRX peptide/PCSK9 protein complex (control, Cnt); ii) PCSK9 protein; and iii) SRX peptide/PCSK9 complex. […]
Cells were cultured using one of the combinations of conditions described in the preceding paragraph for 16 hours. After 16 hours, a quantity of diI-LDL (Low density lipoprotein coupled with 1,1′-dioctadecyl-3,3,3′,3′-tetramethylindocarbocyanine perchlorate) needed to bring the media concentration to 5 ug/mL of diI-LDL was added to the culture well and cells continued to be cultured under these new conditions for 4 additional hours. […] Fluorescence of the diI-LDL in the specimens were quantified using excitation at 530 nm and resulting emission at 580 nm. […]

Chain of PCSK9-D374Y protein (Q8NBP7 153-692 D374Y): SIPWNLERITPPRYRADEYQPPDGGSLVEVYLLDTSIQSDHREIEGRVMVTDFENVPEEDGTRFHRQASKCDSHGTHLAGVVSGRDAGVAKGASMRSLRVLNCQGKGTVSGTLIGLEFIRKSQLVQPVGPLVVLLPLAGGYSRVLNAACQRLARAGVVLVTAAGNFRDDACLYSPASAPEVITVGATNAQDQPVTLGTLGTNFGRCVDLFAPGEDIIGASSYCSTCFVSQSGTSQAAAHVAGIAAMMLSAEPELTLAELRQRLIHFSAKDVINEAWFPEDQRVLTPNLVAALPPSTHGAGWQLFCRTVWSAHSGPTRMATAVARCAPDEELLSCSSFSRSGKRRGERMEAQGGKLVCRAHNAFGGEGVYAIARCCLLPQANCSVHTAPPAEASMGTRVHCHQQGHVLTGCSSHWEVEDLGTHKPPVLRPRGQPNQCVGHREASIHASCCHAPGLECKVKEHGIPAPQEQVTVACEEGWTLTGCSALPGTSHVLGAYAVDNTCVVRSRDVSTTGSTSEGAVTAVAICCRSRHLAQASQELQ
Chain of normal PCSK9 (WT) (Q8NBP7 153-692): as the sequence (Q8NBP7 153-692 D374Y) above, with Y222D counted along it

Val-Tyr-Val-Arg-Phe-Trp (VYVRFW; not fully specified (C-terminus); printed as Val-Tyr-Val-Arg-Phe-Trp) [Compound 1]
LDL internalization (dil-LDL % uptake vs Cnt) (PCSK9-D374Y protein; HuH7, 0.5 μg/ml PCSK9-D374Y, 100 uM peptide (FIG. 3)): positively modulated (increased)
LDL internalization (dil-LDL % uptake vs Cnt) (PCSK9-D374Y protein; HuH7, 0.5 μg/ml PCSK9 GOF-D374Y, increasing concentrations of peptide (FIG. 4)): positively modulated (increased)
dose dependence of positive modulation of LDL internalization (PCSK9-D374Y protein; HuH7, PCSK9 GOF-D374Y (FIG. 4)): positive modulation in a dose dependent manner
percent inhibition (dil-LDL uptake) (PCSK9-D374Y protein; HuH7, PCSK9 GOF-D374Y, peptide at 11.1 uM (FIG. 4 bottom panel)): ~0%
LDL internalization (dil-LDL % uptake vs Cnt) (normal PCSK9 (WT)): positively modulated (increased)
